The text below walks through data of article PMC8432889.

The target of this test is β-PIX (endogenous, Hap1 cells) (human (endogenous in Hap1)) (UniProt Q14155).
Chain of UniProt Q14155 (Q14155 whole entry): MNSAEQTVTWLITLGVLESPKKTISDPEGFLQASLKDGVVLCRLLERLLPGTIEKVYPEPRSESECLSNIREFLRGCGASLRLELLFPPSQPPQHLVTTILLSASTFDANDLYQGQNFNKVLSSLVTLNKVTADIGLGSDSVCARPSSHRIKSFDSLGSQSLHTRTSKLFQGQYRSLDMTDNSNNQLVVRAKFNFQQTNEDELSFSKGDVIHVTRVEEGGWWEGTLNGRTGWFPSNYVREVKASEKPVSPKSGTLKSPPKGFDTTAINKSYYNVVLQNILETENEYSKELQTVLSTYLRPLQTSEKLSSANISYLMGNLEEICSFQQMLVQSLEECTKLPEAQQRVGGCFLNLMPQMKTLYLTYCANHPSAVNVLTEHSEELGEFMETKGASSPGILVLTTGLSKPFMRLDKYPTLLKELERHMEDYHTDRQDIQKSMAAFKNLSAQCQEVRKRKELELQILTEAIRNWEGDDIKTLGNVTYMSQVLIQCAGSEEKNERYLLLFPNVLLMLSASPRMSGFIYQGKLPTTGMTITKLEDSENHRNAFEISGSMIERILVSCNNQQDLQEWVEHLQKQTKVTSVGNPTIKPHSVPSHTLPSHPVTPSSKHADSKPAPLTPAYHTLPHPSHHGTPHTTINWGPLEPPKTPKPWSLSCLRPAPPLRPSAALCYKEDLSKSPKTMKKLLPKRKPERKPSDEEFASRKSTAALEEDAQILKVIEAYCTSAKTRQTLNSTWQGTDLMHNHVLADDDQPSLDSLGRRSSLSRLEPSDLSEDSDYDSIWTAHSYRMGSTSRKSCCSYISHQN

Regarding “Emerald-tagged PAK1, full length (from UniProt Q13153 1-545) (enzyme)”, the Salmonella invasion into WT Hap1 cells treated with the inhibitor peptide PAK18 (PAK residues 187–203; 5 μM), percent impeded; negative control peptide had no effect was 55%.
